# Assay results from patent US20240368250A1 (Ablynx, published 2024).
# What was measured:
# [1] = target: T1, Human serum albumin (HSA; Sigma-Aldrich Cat No. A8763) (human, UniProt P02768 25-609); assay: SPR Biacore 8K+, HSA on CM5 chip, pH 7.4, 1:1 fit
# [2] = target: T1, Human serum albumin (HSA; Sigma-Aldrich …); assay: SPR Biacore 8K+, HSA on CM5 chip, pH 6.0, 1:1 fit
# [3] = target: T2, Mouse serum albumin (MSA; Albumin Bioscience Cat No. 2601) (mouse, UniProt P07724 25-608); assay: SPR Biacore 8K+, MSA on CM5 chip, pH 6.0, 1:1 fit
# [4] = target: T2, Mouse serum albumin (MSA; Albumin …); assay: SPR Biacore 8K+, MSA on CM5 chip, pH 7.4, 1:1 fit
# [5] = target: T3, Human FcRn (biotinylated human FcRn) (human, UniProt P61769 21-119); assay: SPR Biacore 8K+, biotinylated hFcRn on SA chip (~500-600 RU), pH 6.0, bivalent analyte fit;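 further: analytes were Fc proteins binding to biotinylated human FcRn captured on a Series S streptavidin sensor chip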
# T3 construct: Biotinylated human FcRn captured on a Series S Sensor Chip SA; also called human neonatal Fc receptor; hFcRn
# [6] = target: T3, Human FcRn (biotinylated human FcRn); assay: SPR Biacore 8K+, biotinylated hFcRn on SA chip (~500-600 RU), pH 6.0, bivalent analyte fit (KD1)
# [7] = target: T3, Human FcRn (biotinylated human FcRn); assay: SPR Biacore 8K+, biotinylated hFcRn on SA chip (~500-600 RU), pH 6.0, bivalent analyte fit (ka1)
# [8] = target: T3, Human FcRn (biotinylated human FcRn); assay: SPR Biacore 8K+, biotinylated hFcRn on SA chip (~500-600 RU), pH 6.0, bivalent analyte fit (kd1)
# [9] = target: T2, Mouse serum albumin (MSA; Albumin …); assay: SPR Biacore 8K+, MSA on C1 chip, pH 7.4, 1:1 fit (off-rate only)
# [10] = target: T1, Human serum albumin (HSA; Sigma-Aldrich …); assay: SPR Biacore 8K+, HSA on C1 chip, pH 7.4, 1:1 fit
Binder,Kd [1],koff [1],kon [1],Kd [2],koff [2],kon [2],Kd [3],koff [3],kon [3],Kd [4],koff [4],kon [4],KD2 [5],Kd [6],kon [7],koff [8],koff [9],Kd [10],koff [10],kon [10],also measured
TP019 (Fc fusion) chain 1: DVQLVESGGGLVQPGGSLRLSCAASGLTFSTNPMYWYRQAPGKQRELVASISSRGITNYADSVKGRFTISRDNSKNTVYLQMNSLRPEDTAVYYCRLASLSSGTVYWGQGTLVTVSSDKTHTCPPCPAPEAAGGPSVFLFPPKPKDTLMASRTPEVTCVVVDVSQEDPEVQFNWYVDGVEVHNAKTKPREEQFNSTYRVVSVLTVLAQDWLNGKEYKCKVSNKGLPSSIEKTISKAKGQPREPQVYTLPPCQEEMTKNQVSLWCLVKGFYPSDIAVEWESNGQPENNYKTTPPVLDSDGSFFLYSKLTVDKSRWQEGNVFSCSVMHEALHNAYTQKSLSLSLGGGGGSGGGGSGGGGSGGGGSGGGGSGGGGSGGGGSEVQLVESGGGVVQPGGSLRLSCAASGFTFRSFGMSWVRQAPGKGPEWVSSISGSGSDTLYADSVKGRFTISRDNSKNTLYLQMNSLRPEDTALYYCTIGGSLSRSSQGTLVTVSS chain 2: DKTHTCPPCPAPEAAGGPSVFLFPPKPKDTLMASRTPEVTCVVVDVSQEDPEVQFNWYVDGVEVHNAKTKPREEQFNSTYRVVSVLTVLAQDWLNGKEYKCKVSNKGLPSSIEKTISKAKGQPREPQVCTLPPSQEEMTKNQVSLSCAVKGFYPSDIAVEWESNGQPENNYKTTPPVLDSDGSFFLVSKLTVDKSRWQEGNVFSCSVMHEALHNAYTQKSLSLSLG,51 nM,0.0019 s⁻¹,36000 M⁻¹ s⁻¹,26 nM,0.0016 s⁻¹,61000 M⁻¹ s⁻¹,50 nM,0.5 s⁻¹,1e+07 M⁻¹ s⁻¹,50 nM,0.5 s⁻¹,1e+07 M⁻¹ s⁻¹,,,,,,,,,
TP016 (Fc fusion) chain 1: DVQLVESGGGLVQPGGSLRLSCAASGLTFSTNPMYWYRQAPGKQRELVASISSRGITNYADSVKGRFTISRDNSKNTVYLQMNSLRPEDTAVYYCRLASLSSGTVYWGQGTLVTVSSDKTHTCPPCPAPEAAGGPSVFLFPPKPKDTLMASRTPEVTCVVVDVSQEDPEVQFNWYVDGVEVHNAKTKPREEQFNSTYRVVSVLTVLAQDWLNGKEYKCKVSNKGLPSSIEKTISKAKGQPREPQVYTLPPCQEEMTKNQVSLWCLVKGFYPSDIAVEWESNGQPENNYKTTPPVLDSDGSFFLYSKLTVDKSRWQEGNVFSCSVMHEALHNAYTQKSLSLSLG chain 2: DVQLVESGGGVVQPGGSLRLSCAASGFTFRSFGMSWVRQAPGKGPEWVSSISGSGSDTLYADSVKGRFTISRDNSKNTLYLQMNSLRPEDTALYYCTIGGSLSRSSQGTLVTVSSDKTHTCPPCPAPEAAGGPSVFLFPPKPKDTLMASRTPEVTCVVVDVSQEDPEVQFNWYVDGVEVHNAKTKPREEQFNSTYRVVSVLTVLAQDWLNGKEYKCKVSNKGLPSSIEKTISKAKGQPREPQVCTLPPSQEEMTKNQVSLSCAVKGFYPSDIAVEWESNGQPENNYKTTPPVLDSDGSFFLVSKLTVDKSRWQEGNVFSCSVMHEALHNAYTQKSLSLSLG,9.3 nM,0.00057 s⁻¹,61000 M⁻¹ s⁻¹,3.7 nM,0.0004 s⁻¹,110000 M⁻¹ s⁻¹,22 nM,0.0038 s⁻¹,170000 M⁻¹ s⁻¹,35 nM,0.0042 s⁻¹,120000 M⁻¹ s⁻¹,,,,,,,,,
"TPP-66144 (Fc fusion, IgG4 FALA Fc knob-in-hole, C-terminal ALB23002 via 9GS linker) chain 1: DVQLVESGGGVVQAGGSLSISCAASGGSLSNYVLGWFRQAPGKEREFVAAINWRGDITIGPPNVEGRFTISRDNAKNTGYLQMNSLAPDDTALYYCGAGTPLNPGAYIYDWSYDYWGRGTLVTVSSDKTHTCPPCPAPEAAGGPSVFLFPPKPKDTLMISRTPEVTCVVVDVSQEDPEVQFNWYVDGVEVHNAKTKPREEQFNSTYRVVSVLTVLHQDWLNGKEYKCKVSNKGLPSSIEKTISKAKGQPREPQVYTLPPCQEEMTKNQVSLWCLVKGFYPSDIAVEWESNGQPENNYKTTPPVLDSDGSFFLYSKLTVDKSRWQEGNVFSCSVMHEALHNHYTQKSLSLSLGGGGGSGGGSEVQLVESGGGVVQPGGSLRLSCAASGFTFRSFGMSWVRQAPGKGPEWVSSISGSGSDTLYADSVKGRFTISRDNSKNTLYLQMNSLRPEDTALYYCTIGGSLSRSSQGTLVTVSSA chain 2: DVQLVESGGGVVQAGGSLSISCAASGGSLSNYVLGWFRQAPGKEREFVAAINWRGDITIGPPNVEGRFTISRDNAKNTGYLQMNSLAPDDTALYYCGAGTPLNPGAYIYDWSYDYWGRGTLVTVSSDKTHTCPPCPAPEAAGGPSVFLFPPKPKDTLMISRTPEVTCVVVDVSQEDPEVQFNWYVDGVEVHNAKTKPREEQFNSTYRVVSVLTVLHQDWLNGKEYKCKVSNKGLPSSIEKTISKAKGQPREPQVCTLPPSQEEMTKNQVSLSCAVKGFYPSDIAVEWESNGQPENNYKTTPPVLDSDGSFFLVSKLTVDKSRWQEGNVFSCSVMHEALHNRFTQKSLSLSLG",,,,,,,,,,,,,2.86 M,103 nM,808000 M⁻¹ s⁻¹,0.0834 s⁻¹,0.0842 s⁻¹,51.6 nM,0.00124 s⁻¹,24000 M⁻¹ s⁻¹,ka2 [5]: 0.017 1/RUs; kd2 [5]: 0.0485 s⁻¹
"TPP-66147 (Fc fusion, IgG4 FALA Fc knob-in-hole, C-terminal ALB23002 via 35GS) chain 1: DVQLVESGGGVVQAGGSLSISCAASGGSLSNYVLGWFRQAPGKEREFVAAINWRGDITIGPPNVEGRFTISRDNAKNTGYLQMNSLAPDDTALYYCGAGTPLNPGAYIYDWSYDYWGRGTLVTVSSDKTHTCPPCPAPEAAGGPSVFLFPPKPKDTLMISRTPEVTCVVVDVSQEDPEVQFNWYVDGVEVHNAKTKPREEQFNSTYRVVSVLTVLHQDWLNGKEYKCKVSNKGLPSSIEKTISKAKGQPREPQVYTLPPCQEEMTKNQVSLWCLVKGFYPSDIAVEWESNGQPENNYKTTPPVLDSDGSFFLYSKLTVDKSRWQEGNVFSCSVMHEALHNHYTQKSLSLSLGGGGGSGGGGSGGGGSGGGGSGGGGSGGGGSGGGGSEVQLVESGGGVVQPGGSLRLSCAASGFTFRSFGMSWVRQAPGKGPEWVSSISGSGSDTLYADSVKGRFTISRDNSKNTLYLQMNSLRPEDTALYYCTIGGSLSRSSQGTLVTVSSA chain 2: DVQLVESGGGVVQAGGSLSISCAASGGSLSNYVLGWFRQAPGKEREFVAAINWRGDITIGPPNVEGRFTISRDNAKNTGYLQMNSLAPDDTALYYCGAGTPLNPGAYIYDWSYDYWGRGTLVTVSSDKTHTCPPCPAPEAAGGPSVFLFPPKPKDTLMISRTPEVTCVVVDVSQEDPEVQFNWYVDGVEVHNAKTKPREEQFNSTYRVVSVLTVLHQDWLNGKEYKCKVSNKGLPSSIEKTISKAKGQPREPQVCTLPPSQEEMTKNQVSLSCAVKGFYPSDIAVEWESNGQPENNYKTTPPVLDSDGSFFLVSKLTVDKSRWQEGNVFSCSVMHEALHNRFTQKSLSLSLG",,,,,,,,,,,,,3.17 M,1060 nM,101000 M⁻¹ s⁻¹,0.107 s⁻¹,0.075 s⁻¹,27.1 nM,0.00119 s⁻¹,43800 M⁻¹ s⁻¹,ka2 [5]: 3.3e-05 1/RUs; kd2 [5]: 0.000105 s⁻¹
"TPP-66152 (Fc fusion, IgG4 FALA Fc knob-in-hole, C-terminal ABD via 35GS on chain 2) chain 1: DVQLVESGGGVVQAGGSLSISCAASGGSLSNYVLGWFRQAPGKEREFVAAINWRGDITIGPPNVEGRFTISRDNAKNTGYLQMNSLAPDDTALYYCGAGTPLNPGAYIYDWSYDYWGRGTLVTVSSDKTHTCPPCPAPEAAGGPSVFLFPPKPKDTLMISRTPEVTCVVVDVSQEDPEVQFNWYVDGVEVHNAKTKPREEQFNSTYRVVSVLTVLHQDWLNGKEYKCKVSNKGLPSSIEKTISKAKGQPREPQVYTLPPCQEEMTKNQVSLWCLVKGFYPSDIAVEWESNGQPENNYKTTPPVLDSDGSFFLYSKLTVDKSRWQEGNVFSCSVMHEALHNHYTQKSLSLSLG chain 2: DVQLVESGGGVVQAGGSLSISCAASGGSLSNYVLGWFRQAPGKEREFVAAINWRGDITIGPPNVEGRFTISRDNAKNTGYLQMNSLAPDDTALYYCGAGTPLNPGAYIYDWSYDYWGRGTLVTVSSDKTHTCPPCPAPEAAGGPSVFLFPPKPKDTLMISRTPEVTCVVVDVSQEDPEVQFNWYVDGVEVHNAKTKPREEQFNSTYRVVSVLTVLHQDWLNGKEYKCKVSNKGLPSSIEKTISKAKGQPREPQVCTLPPSQEEMTKNQVSLSCAVKGFYPSDIAVEWESNGQPENNYKTTPPVLDSDGSFFLVSKLTVDKSRWQEGNVFSCSVMHEALHNRFTQKSLSLSLGGGGGSGGGGSGGGGSGGGGSGGGGSGGGGSGGGGSLKEAKEKAIEELKKAGITSDYYFDLINKAKTVEGVNALKDEILKA",,,,,,,,,,,,,,1860 nM,57500 M⁻¹ s⁻¹,0.107 s⁻¹,0.00111 s⁻¹,2.24 nM,0.000201 s⁻¹,89500 M⁻¹ s⁻¹,
